Values quoted from earlier work, collected in PMC5800599.

Target: FcγRIIIa/CD16A (Homo sapiens) (UniProt P08637)
Sequence (P08637 17-254): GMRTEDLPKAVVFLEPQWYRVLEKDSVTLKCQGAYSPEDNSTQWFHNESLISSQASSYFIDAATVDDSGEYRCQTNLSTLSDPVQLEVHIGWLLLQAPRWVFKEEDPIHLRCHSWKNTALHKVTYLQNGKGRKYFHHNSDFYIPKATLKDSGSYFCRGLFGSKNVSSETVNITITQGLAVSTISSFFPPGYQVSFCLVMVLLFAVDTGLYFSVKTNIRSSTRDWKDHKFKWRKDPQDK

Kd: 550 nM
Substance: hIgG1 Fc Fc (from UniProt P01857)
